Assay results reported in paper PMC5469495, “MicroRNA319-regulated TCPs interact with FBHs and PFT1 to activate CO transcription and control flowering time in Arabidopsis” (PLoS Genetics, 2017).

T1: PFT1-CFP (Arabidopsis thaliana, UniProt Q7XYY2 1-836)
T1 construct: PFT1 (MED25), Arabidopsis thaliana, At1g25540; FRET donor; also called PHYTOCHROME AND FLOWERING TIME 1; MED25; source: Arabidopsis protoplast cells, co-expressed
T1 sequence (looked up): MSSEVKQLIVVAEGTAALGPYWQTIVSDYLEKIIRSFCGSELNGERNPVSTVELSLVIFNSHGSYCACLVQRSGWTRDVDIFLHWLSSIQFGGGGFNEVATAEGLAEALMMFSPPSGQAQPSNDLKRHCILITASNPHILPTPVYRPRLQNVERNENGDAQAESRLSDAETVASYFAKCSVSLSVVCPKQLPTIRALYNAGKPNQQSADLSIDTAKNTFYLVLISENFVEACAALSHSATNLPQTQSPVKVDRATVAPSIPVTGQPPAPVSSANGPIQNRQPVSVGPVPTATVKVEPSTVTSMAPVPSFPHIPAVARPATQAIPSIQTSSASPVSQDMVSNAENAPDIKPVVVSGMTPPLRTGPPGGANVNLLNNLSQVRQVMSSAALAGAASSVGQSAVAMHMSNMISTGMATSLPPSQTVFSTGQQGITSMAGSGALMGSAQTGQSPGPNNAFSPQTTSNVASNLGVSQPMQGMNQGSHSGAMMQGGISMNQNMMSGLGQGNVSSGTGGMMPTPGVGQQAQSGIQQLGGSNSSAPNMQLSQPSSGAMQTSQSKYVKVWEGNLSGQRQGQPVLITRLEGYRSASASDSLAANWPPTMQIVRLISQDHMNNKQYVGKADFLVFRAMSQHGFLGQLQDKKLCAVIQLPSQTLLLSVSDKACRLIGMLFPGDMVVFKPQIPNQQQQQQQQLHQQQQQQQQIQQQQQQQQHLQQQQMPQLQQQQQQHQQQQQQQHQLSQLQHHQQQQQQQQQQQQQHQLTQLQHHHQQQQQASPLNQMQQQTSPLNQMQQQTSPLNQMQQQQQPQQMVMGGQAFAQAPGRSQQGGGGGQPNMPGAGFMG

T2: PFT1-YFP (Arabidopsis thaliana, UniProt Q7XYY2 1-836)
T2 construct: PFT1 (MED25), Arabidopsis thaliana, At1g25540; FRET acceptor; also called PHYTOCHROME AND FLOWERING TIME 1; MED25; source: Arabidopsis protoplast cells, co-expressed
T2 sequence (looked up): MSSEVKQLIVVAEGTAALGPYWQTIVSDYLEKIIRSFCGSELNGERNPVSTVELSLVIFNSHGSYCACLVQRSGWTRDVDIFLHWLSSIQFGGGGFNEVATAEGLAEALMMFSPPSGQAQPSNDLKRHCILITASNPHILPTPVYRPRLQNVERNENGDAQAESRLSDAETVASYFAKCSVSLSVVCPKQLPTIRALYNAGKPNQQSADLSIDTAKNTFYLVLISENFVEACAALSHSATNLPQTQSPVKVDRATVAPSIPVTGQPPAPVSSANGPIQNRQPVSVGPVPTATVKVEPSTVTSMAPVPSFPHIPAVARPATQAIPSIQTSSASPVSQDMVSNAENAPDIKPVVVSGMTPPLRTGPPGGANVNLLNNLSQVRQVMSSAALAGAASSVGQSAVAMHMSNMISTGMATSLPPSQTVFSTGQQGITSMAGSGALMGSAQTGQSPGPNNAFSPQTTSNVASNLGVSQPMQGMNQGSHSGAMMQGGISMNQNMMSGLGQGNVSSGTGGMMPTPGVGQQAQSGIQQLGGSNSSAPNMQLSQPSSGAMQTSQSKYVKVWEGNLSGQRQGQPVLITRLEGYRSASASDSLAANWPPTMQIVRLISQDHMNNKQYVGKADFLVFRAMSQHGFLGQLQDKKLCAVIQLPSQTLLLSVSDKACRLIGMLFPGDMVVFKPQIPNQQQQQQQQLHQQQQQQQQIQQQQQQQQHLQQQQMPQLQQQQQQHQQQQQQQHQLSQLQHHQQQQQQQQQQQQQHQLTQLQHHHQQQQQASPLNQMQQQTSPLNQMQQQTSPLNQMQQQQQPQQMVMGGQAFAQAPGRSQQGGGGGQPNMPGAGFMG

B1: FBH1-YFP (natural protein, Arabidopsis thaliana, UniProt Q9C8P8 1-259, looked up)
chain: MQSTHISGGSSGGGGGGGGEVSRSGLSRIRSAPATWIETLLEEDEEEGLKPNLCLTELLTGNNNSGGVITSRDDSFEFLSSVEQGLYNHHQGGGFHRQNSSPADFLSGSGSGTDGYFSNFGIPANYDYLSTNVDISPTKRSRDMETQFSSQLKEEQMSGGISGMMDMNMDKIFEDSVPCRVRAKRGCATHPRSIAERVRRTRISDRIRRLQELVPNMDKQTNTADMLEEAVEYVKALQSQIQELTEQQKRCKCKPKEEQ
notes: FBH1, Arabidopsis thaliana, At1g35460; FRET acceptor; also called FLOWERING BHLH 1; source: Arabidopsis protoplast cells, co-expressed

What was measured:
Assay in all cases: FRET or BRET; FLIM-FRET in Arabidopsis protoplast cells, 24 h after transformation; CFP fusion as donor, YFP fusion as acceptor; CFP lifetime in nuclei; negative controls TCP4-CFP/YFP tauD 2.59 ± 0.39 ns and PFT1-CFP/YFP tauD 2.80 ± 0.28 ns
Settings in all cases: partners not purified
[1] = target: T1, PFT1-CFP
[2] = target: B1
[3] = target: T2, PFT1-YFP

average CFP fluorescence lifetime (tauDA) [1] [ns]	average CFP fluorescence lifetime (tauDA) [2] [ns]	average CFP fluorescence lifetime (tauDA) [3] [ns]	Binder
0.95			B1
	0.99	0.9	TCP4-CFP (natural protein, Arabidopsis thaliana, UniProt Q8LPR5 1-420, looked up, TCP4, Arabidopsis thaliana, At3g15030; FRET donor; source: Arabidopsis protoplast cells, co-expressed) MSDDQFHHPPPPSSMRHRSTSDAADGGCGEIVEVQGGHIVRSTGRKDRHSKVCTAKGPRDRRVRLSAHTAIQFYDVQDRLGFDRPSKAVDWLIKKAKTSIDELAELPPWNPADAIRLAAANAKPRRTTAKTQISPSPPPPQQQQQQQQLQFGVGFNGGGAEHPSNNESSFLPPSMDSDSIADTIKSFFPVIGSSTEAPSNHNLMHNYHHQHPPDLLSRTNSQNQDLRLSLQSFPDGPPSLLHHQHHHHTSASASEPTLFYGQSNPLGFDTSSWEQQSSEFGRIQRLVAWNSGGGGGATDTGNGGGFLFAPPTPSTTSFQPVLGQSQQLYSQRGPLQSSYSPMIRAWFDPHHHHQSISTDDLNHHHHLPPPVHQSAIPGIGFASGEFSSGFRIPARFQGQEEEQHDGLTHKPSSASSISRH
